# Source: the nanobody polyreactivity screen of Harvey et al. (2022)
# Test: yeast display, Sf9 membrane polyspecificity reagent, FACS + sequencing; frameworks hold sequencing errors
# Summary of the method: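 Sorting gates, low and high (top ~1%), were placed on anti-HA fluorescence to track expression and on streptavidin fluorescence to track reagent binding. A clone's polyreactivity label is taken from the gate it came out of. The reagent was 10% biotinylated, detergent-solubilized Sf9 membrane, applied for 1 hour at 4 °C to galactose-induced yeast display cells.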
row,Sequence,polyreactivity (PSR sort gate)
1,QVQLVESGGGLDQAGGRLRLICAASGNTFRFYTLGWYRQAPGQETEFVAAINSSGRTNYADSVKGRFTISRDNATNTVYLQMNSLKPEDTAVYYCAADYYQRSTFLGVDEYDYWGQGTQVTVSS,low polyreactivity
2,QVQLVESGGGLDQAGGRLRLSCAASGSTFLLYAMGWYRQAPGKERELVAAIDTGDSTNYADSVKGRFTISRDNAKNTVYLQMNSLKREDTAVYYCNADSFPALNKRGYDYWGQGTQVTVSS,low polyreactivity
3,QVQLVESGGGLDQAGGSIRLSCAASGFIYDGNAMGSYRQAPGKERELVAAISSGGGTTYYADSVKGRFTISRDNAKNTVYLQMNSLKPEDTAVYYCADDALSDEYDYWGQGTQVTVSS,low polyreactivity
4,QVQLVESGGGLDQAGGSLLLSCAASGSIFRSNAMGWYRQAPRKERELVAAIDYSGTSTTYADSVKGRFSISRDNAKNTVYLQMNSLKPEDTAVYYCNADGYYRGYWSGYEYWGQGTQGTVSS,low polyreactivity
5,QVQLVESGGGLDQAGGSLLLSCPASGRTFGTYAMGLYRQAPGKERELVASITSGDSTNYADSVKGRFTISRDNAKYTVYLQMNSQKPEDTAVYYCNASGYVMVTPPKLSFNYEYWGQGTQVTVSS,low polyreactivity
6,QVQLVESGGGLDQAGGSLRLICAASGFIFEYYAMGWYRQAPGKERELVASITSGGTTYYADSVKGRFTISRDNAKNTVYLQMNSLKPEDTAVDYCAAAWRIWWYHRGEFDYWGQGTQVTVSS,high polyreactivity
7,QVQLVESGGGLDQAGGSLRLICAASGRIFKWYAMGWYRQAPGKERELVATITWSGGSTYYADSVKGRFTISRDNAQNTVYLQMNSLKAEDTAVYYCNADTWLALPCFDYWGQGTQVTVSS,high polyreactivity
8,QVQLVESGGGLDQAGGSLRLRCAPSGRIFSYVMGWYRQAPGKERELVAAISGGVRTYYADSVKGRFTISRDNAKNTVYLQMNSLKPEDTAVYYCNADWYRKRNYWGQGTQVTVSS,high polyreactivity
9,QVQLVESGGGLDQAGGSLRLSCAAAGRTFPYYAMGWYRQAPGKERELVATISTSGTSTYYADSVKGRFTISRDKAKNTVYLQMNSLKPEDTAVYYCNAVHRNWRQKFDYWGLGTQVTVSS,high polyreactivity
10,QVQLVESGGGLDQAGGSLRLSCAASASTFRRYAMGWYRQAPGKERELVAAISRSGGNTYYADSVKGRFTISRDNAKNTVYLQMNSLKPEDTAVYYCAASKLYGSPEHGYWGQGTQVTVSS,high polyreactivity
11,QVQLVESGGGLDQAGGSLRLSCAASGFTFASYAMGWYRQAPGKERELLAAITRSGGSTYYADSVKGRFTISRDNAKNTVYLHLTSLKPEDTAVYYCATDDEQHYYLLEYYYWGQGTQVTVSS,low polyreactivity
12,QVQLVESGGGLDQAGGSLRLSCAASGFTFTGYAMGWYRQAPGKERELVAAITRGGGSTYYADSVKGRFTISRDNAKNTVYLQMNSLKPEDTAVYYSAAQRSRLIRISSPYYGHDYWGQGTQVTVSS,low polyreactivity
13,QVQLVESGGGLDQAGGSLRLSCAASGFTLHSYALGWYRQAPGKERELVAAITTGGSTYYADSVKGRFTISRDNAKNTVYLQMNSLKPEDTAVYYCAAEDPGPYGGYVYWGQGTQVTVSS,low polyreactivity
14,QVQLVESGGGLDQAGGSLRLSCAASGIIFEQYAMGWYRQAPGKERELVAAISSGGTTYADSVKGRFTISRDNAKNTVYLQMNSLKPEYTAVYYCNDDLSWHGPDWSDYEYDYWGQGTQVTVSS,low polyreactivity
15,QVQLVESGGGLDQAGGSLRLSCAASGIILYGYTMGGYRQAPGKERELVAAINRGGSTNYADSVKGRFTISRDNAKNTVYLQMNSLKPEDTAVYYCAVDTVVASTYDYWGQGTQVTVSS,low polyreactivity
16,QVQLVESGGGLDQAGGSLRLSCAASGIILYRNGMGCYRQAPGKETELVAVISRRGGTYYADSVKGRFTISRDNAKNTVYLQVNSLKPEDTAVYYCAAYLSQKGNFRGGGDYWGQGTQVTVSS,high polyreactivity
17,QVQLVESGGGLDQAGGSLRLSCAASGITFQGYAMGWYRQAPGKERELVAAINDSGSSTYYADSVKGRFTISRDNAKNTVYLQMNSLKPEDTAVYYCAAYLWFWGQGTQVTVSS,low polyreactivity
18,QVQLVESGGGLDQAGGSLRLSCAASGITFTVNARGWYREAPGKERELVAGITWSGGSTYYADSVKGRFTISRDNAKNTVYLQMNSLKPEDTAVYYCNADSDGFWSIYDYWGQGTQVTVSS,low polyreactivity
19,QVQLVESGGGLDQAGGSLRLSCAASGLTFKWYAMGWYRQAPGKERELVAAIRTSAGSTYYADSVKGRFTISRDNAKNTVYLQMNSLKPEDTAVYYCNAVGYVFRYVYQYDYWGQCTQVTVSS,low polyreactivity
20,QVQLVESGGGLDQAGGSLRLSCAASGLTFYKYAMGWYRQAPRKERELVASISRTGGSTYYADSVKGRFTISRDNANNTVYLQMNSLKPEDTAFYYCAARRGYYYGRVGYWGQGTQVTVSS,high polyreactivity
21,QVQLVESGGGLDQAGGSLRLSCAASGNTFIRNALGWYRQAPGIERELVAAITSGTSTYYADSVKGRFTISRDNAQKTVYLQMNSLKPEDTALYYCAKRRNYWHYYWGQGTQVTVSS,high polyreactivity
22,QVQLVESGGGLDQAGGSLRLSCAASGRIFTANVMGWYRQAPGKERELVAAIDYSGGSTYYADSVKGRFTISRDNAKNTVYLQMNSLKPEDTAVYSCNRDDYADYYHLEYDYWGQGTQVTVSS,low polyreactivity

row,Sequence,polyreactivity (PSR sort gate)
1,QVQLVESGGGLDQAGGSLRLSCAASGRIFTTYAMGWYRQAPGKERELVAAISRSGGSTYYADSVKGRFTISRDNAKNTVYLQMNSLKPEDTAVYYCAAVPTSNSFRSSFYYWGQGTQVTVSS,high polyreactivity
2,QVQLVESGGGLDQAGGSLRLSCAASGRIFTYNTMGWYRQAPGKEREFVASITYSGSSTYYADSVKGRFTISRDNAKNTVYLEMNSLKPEVTAVYYCAHRYGYSDGDYWGQGTQVTVSS,low polyreactivity
3,QVQLVESGGGLDQAGGSLRLSCAASGRIFYYYALGWYRQAPGKERELVAAITWIGTSTYYADSVKGRFTISRDNGKNTVYLQMNSLKPEDTAVYYCAAEGWVGAWWYVLDVRYDYWGQGTQVTVSS,low polyreactivity
4,QVQLVESGGGLDQAGGSLRLSCAASGRIGYYAMGWYRQAPGKETELVAAISYGGGSTYYADSVKGRFTISRDNAKNTVYLQLNSLKPEDTAVYYCAARWGKSWRGYGYWGQGTLVTVSS,high polyreactivity
5,QVQLVESGGGLDQAGGSLRLSCAASGRTFEYNAMGLYRQAPGKERELVATIRYSGTSTYADSVKGRFTISRDNAKNTAYLQMNSLKPEDTAVYYCNKLGYYYDRRYDYWGQGTQVTVSS,high polyreactivity
6,QVQLVESGGGLDQAGGSLRLSCAASGRTFGKYAMGWYRQAPGKERELVAAITGGGGTKYADSVKGRFTISRDNAKNTFYLQMNSLKPEDTAVYYCAAASGSRRHGFWGQGTQVTVSS,high polyreactivity
7,QVQLVESGGGLDQAGGSLRLSCAASGRTFQGYAMGWYRQAPGKERELVAAISRSGGRTYYADSVKGRFTISRDNAKNTVYLQMNSLKPEATAVYFCATDAFRDYGYWGQGTQVTLSS,high polyreactivity
8,QVQLVESGGGLDQAGGSLRLSCAASGRTFSYYAMGWYRQAPVKERELVAGISWRGTSTYADSVKGRFTISRDNAKNTFYLQMNRLKPEHTAVYYCNAEVTGHYSYHKFDYWGQGTQVTVSS,low polyreactivity
9,QVQLVESGGGLDQAGGSLRLSCAASGRTFTHNVMGWYRQAPGKEMELVAGISSTGGSTYYADSVKVRFTISRDNAKNTVYLQMNSLKPEDTAVYYCAKQRRSFYDFFHYDYWGLGTQVTVSS,low polyreactivity
10,QVQLVESGGGLDQAGGSLRLSCAASGRTFTVNTMGWYIQAPGKERELVAAIPNGGSTNYADSVKGRFTISHDNAKNTVYLQMNSLKPEDTAVYYCAAYYYYTLYYRYDYWGQGTQVTVSS,low polyreactivity
11,QVQLVESGGGLDQAGGSLRLSCAASGRTFVVYAMGWYRQAPGKERELVAAITSSGNTYYADSVKGRFTISRDNAKNTVYLQMNSLKPEDTAVYYCAAYSLYGYDYWGQGTQVTVSS,low polyreactivity
12,QVQLVESGGGLDQAGGSLRLSCAASGRTFYTYVMGWYRQAPGKEREFLAAITYSGGSTYYADSVKGRFTISRDNAKNTVYLQMNSLKTEDSAVYYCNAEWTYSEWYGQYLEFDYWGQGTQVTVSS,high polyreactivity
13,QVQLVESGGGLDQAGGSLRLSCAASGSIFDTYAMGWYIQAPGKSWELVAAISWGGGSTYYADSVKGRFTISRDNAKNTVYLQMNSLKPEDTAVYYCATEYFFLGGWYEYWGQGTQVTVSS,high polyreactivity
14,QVQLVESGGGLDQAGGSLRLSCAASGSIFGFYAMGWSRQAPGKERELVAAITWRGGSTYYADSVKGRFTISRDNAKNTVYLQMTILKPEDTAVYYCAATSARRQTYNFAKYDYWGQGTQVTLSS,low polyreactivity
15,QVQLVESGGGLDQAGGSLRLSCAASGSIFGYNGMGWYRQAPGKESEFVAAISYSGSRTYYADSVKGRFTISRDNAKNTVYLQMNSLKPEDTAVYYCATDDSHYLYRTVSAWEYDYWGQGTQVTVSS,low polyreactivity
16,QVQLVESGGGLDQAGGSLRLSCAASGSIFLRYAMGWYRQAPGKERELVAAITTGGGSTYYADSVKGRFTISRDNAKNTVYLQMNSLKPEDTAVYYCAKRAQYHWRGRDDYSYYYWGQGTQVTVSS,low polyreactivity
17,QVQLVESGGGLDQAGGSLRLSCAASGSIFMPNAMGWYRQAPGKERELVAAISASTSSTYYADSVKGRFTISRDNAKNTVYLEMNSLKPEDTGVYYCAAYYVFFYLEDVYYEYDYWGQGTQVTVSS,high polyreactivity
18,QVQLVESGGGLDQAGGSLRLSCAASGSIFPLYAKGWYRQAPGKERELVADITVSGGSTYYADSVKGRFTISRDYAKNTVYLQMNSLKPEDTAVYYCAKDNGPWFAYDYWGQGTHVTVSS,low polyreactivity
19,QVQLVESGGGLDQAGGSLRLSCAASGSIFRSYAMGWYRQAPGKERELVATIDRSGGSTYYADSVKGRFTISRDNAKNTVYLQMNSLKPEDTAVYYCNKTPHFPRPGFNYWGQGTQVTVSS,low polyreactivity
20,QVQLVESGGGLDQAGGSLRLSCAASGSIFVLYAMGWYRQAPGKERELVAAITRSGGDTYYADSVKGRFTISRDNAKNTVYLQMNSLKPEDTAVYYCAAERSWYPWVATGYYWGQGTQVTVSS,low polyreactivity
21,QVQLVESGGGLDQAGGSLRLSCAASGSIFVRNAMGWYRQAPGKERELVASISRRGGSTYYADSVKGRFTISRDNAKNTVYLQMNSLKPEDTAVYYCAAVVRRAPEFDYWGQGTQVTVSS,high polyreactivity
